Experimental data: paper doi:10.1101/2022.09.21.508879
Each block holds one substance with its values, some of them ahead of it.

Legend:
[1] = molecular target: Chlamydomonas reinhardtii CFAP410 C-terminal domain, mutant A219E (Chlamydomonas reinhardtii); assay: SEC-MALS
[2] = molecular target: Chlamydomonas reinhardtii CFAP410 C-terminal domain, wild type (Chlamydomonas reinhardtii); assay: crystal structure
[3] = molecular target: Chlamydomonas reinhardtii CFAP410 C-terminal domain, wild type (Chlamydomonas reinhardtii); assay: SEC-MALS
[4] = molecular target: Homo sapiens CFAP410 C-terminal domain, wild type (Homo sapiens) (UniProt O43822); assay: crystal structure
[5] = molecular target: Trypanosoma brucei CFAP410 C-terminal domain, wild type (Trypanosoma brucei); assay: crystal structure

Substance: Chlamydomonas reinhardtii CFAP410 C-terminal domain, mutant A219E (peptide)
stoichiometry N [1]: 2

Substance: Chlamydomonas reinhardtii CFAP410 C-terminal domain, wild type (peptide)
stoichiometry N [2]: 4 | stoichiometry N [3]: 4

stoichiometry N [4]: 4
Substance: Homo sapiens CFAP410 C-terminal domain, wild type (from UniProt O43822 212-246) (peptide)

Substance: Trypanosoma brucei CFAP410 C-terminal domain, wild type (peptide)
stoichiometry N [5]: 4
